Data reported in the RNAGym collection of RNA variant scans (doi:10.1073/pnas.2313332121).
This sample holds only a part of the variants without activity.

B1: TPR 5TU (parent)
chain: GGAUCUUCUCGAUCUAACAAAAAAGACAAAUCUGCCACAAAGCUUGAGAGCAUCUUCGGAUGCAGAGGCGGCAGCCUUCGGUGGCGCGAUAGCGCCAACGUUCUCAACUAUGACACGCAAAACGCGUGCUCCGUUGAAUGGAGUUUAUCAUG

Variants of: B1
Test: polymerase ribozyme fitness, log enrichment relative to wild type (log ratio); higher = more active; in vitro selection for triplet polymerase activity
How it was run: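 Fitness is a logarithmic measure of how a genotype enriched relative to the wild type, with replicate averages weighted by inverse variance. The logarithm uses base 2, and enrichment came from Illumina sequencing of input and output libraries. Those libraries were PCR-built, transcribed mutants of each subunit of a heterodimeric triplet polymerase ribozyme, passed through one triplicate in vitro selection round that included frozen incubation at −7 °C, gel excision of extended constructs and streptavidin-bead capture. Genotypes were kept only if they had ≥10 input reads and ≥1 read per output.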

Going from GGAUCUUCUCGAUCUAACAAAAAAGACAAAUCUGCCACAAAGCUUGAGAGCAUCUUCUGAUGCAGAGACGGCAGCCUUCGGUGGCGCGAUAGCGUCAACGUUCUCAACUAUGACACGCAAAACGCGUGCUCCGUUGAAUGGAGUUUAUCAUG [G58U G68A C95U] to GGAUCUUCUCGAUCUAACAAAAAAGACAAAUCUGCCACAAAGCUUGAGAGCAUCUUCGAAUGCAGAGGCGGCAGCCUUCGGUGGCGCGAUAGCGCCAACGUUCUCAACUUUGACACGCAAAACGCGUGCUCCGUUGAAUGGAGUUUAUCAUG [G59A A110U], the “polymerase ribozyme fitness (log ratio)” value rises from -4.01 to -3.64.

GGAUCUUCUCGAUCUAACAAAAAAGACAAAUCUGCCACAAAGCUUGAGAGCAUCUUCUGAUUCAGAGGCGGCAGCCUUCGGUGGCGCGAUAGCGCCAAUGUUCUCAACUAUGACACGUAAAACGCGUGCUCCGCUGAAUGGAGUUUAUCAUG [G58U G62U C99U C118U U134C] and GGAUCUUCUCGAUCUAACAAAAAAGACAAAUCUGCCACAAAGCUUGAGAGCAUCUUCGAAUGCAGAGGCGGCAGCCUUCGGUGGCGCGAUAGCGCCAACGUUCUCAACUAUGACGCGCAAAACGCGUGCUCCGUUGAAUAGAGUUUAUCAUG [G59A A115G G140A] cannot be ordered by “polymerase ribozyme fitness (log ratio)” value: no more than -4.2 for the first, no more than -4.2 for the second.

Going from GGAUCUUCUCGAUCUAACAAAAAAGACAAAUCUGCCACAAAGCUUGAGAGCAUCUUCGAAUGCAGAGGCGGCAGGCUUCGGUGGCGCGAUAGCUUCAACGUUCUCAACUAUGACACGCAAAACGCGUGCUCCGUUGAAUGGAGUUUAUCAUG [G59A C75G G94U C95U] to GGAUCUUCUCGAUCUAACAAAAAAGACAAAUCUGCCACAAAGCUUGAGAGCAUCUUCUGAUGCAGAGGCGGCAGCCUUCGGUGGCGCGAUAGCGCCAACGUUCUCAACUAUGACACGCAAAACGCGUGCUCCGUUGAAUGAAGUUUAUCAUG [G58U G141A], the “polymerase ribozyme fitness (log ratio)” value rises from -3.76 to 1.05.

Compared with GGAUCUUCUCGAUCUAACAAAAAAGACAAAUCUGCCACAAAGCUUGAGAGCAUCUUCUGAUGCAGAGGCGGCAGCCUUCGGUGGCGCGAUAGCGCCAACGUUCUCAACUAUGACACGCAAAACGCGUGCUCCGUUGAAUGCAGUUUAUCAUG [G58U G141C], GGAUCUUCUCGAUCUAACAAAAAAGACAAAUCUGCCACAAAGCUUGAGAGCAUCUUCUGAUGCAGAGGCGGCAGCCUUCGGAGGCGCGAUAGCGCCAACGUUCUCAACUAUGACAUGCAAAACGCGUGCUCCGUUGAAUGGAGUUUAUCAUG [G58U U82A C116U] is higher in “polymerase ribozyme fitness (log ratio)” value: 0.501 for the first, 0.803 for the second.

Compared with GGAUCUUCUCGAUCUAACAAAAAAGACAAAUCUGCCACAAAGCUUGAGAGCAUCUUCUGAUGCAGAGGCGGCAGCCUUCGGUGGCGCGAUAGCGCCAACGUUCUCAACUAUGACACGCAAAACGCGUGGUCCGUUGAAUGGAGUUUAUCAUG [G58U C129G], GGAUCUUCUCGAUCUAACAAAAAAGACAAAUCUGCCACAAAGCUUGAGAGCAUCUUCGAGUGCAGAGGCGGCAGCCUUCGGUGGCGCGAUAGCUACAACGUUCUCAACUAUGACACGCAAAACGCGUGCUCCGUUGAAUGGAGUUUAUCAUG [G59A A60G G94U C95A] is higher in “polymerase ribozyme fitness (log ratio)” value: -2.47 for the first, -1.74 for the second.

Compared with GGAUCUUCUCGAUCUAACAAAAAAGACAAAUCUGCCACAAAGCUUGAGAGCAUCUUCUGAUGCAGAGGCGGCAGCCUUCGGAGUCGCGAUAGCGCCAACGUUCUCAACUAUGACACGCAAAACGCGUGCUCCGUUGAAUGGAGUUUAUCAUG [G58U U82A G84U], GGAUCUUCUCGAUCUAACAAAAAAGACAAAUCUGCCACAAAGCUUGAGAGCAUCUUCUGAUGCAGAGGCGGCAGCCUUCGGUGGCCCGAUAGCGCCAACGUUCUCAACUAUGACACGCAAAACGCGUGCUCCGUUGAAUGGAGUUUAUCAUG [G58U G86C] is lower in “polymerase ribozyme fitness (log ratio)” value: -0.648 for the first, -1.98 for the second.

First: GGAUCUUCUCGAUCUAACAAAAAAGACAAAUCUGCCACAAAGCUUGAGAGCAUCUUCGAAUGCAGAGGCGGCGGCCUUCGGUGGCGCGACAGGGCCAACGUUCUCAACUAUGACACGCAAAACGCGUGCUUCGUUGAAUGGAGGUUAUCAUG [G59A A73G U90C C93G C131U U144G]
Second: GGAUCUUCUCGAUCUAACAAAAAAGACAAAUCUGCCACAAAGCUUGAGAGCAUCUUCUGAUGCAGAGGCGGCAGCCUUCGGUGGCGCGAUAGCGCCAACGUUCUCAACUAUGACACGCAAAAUGCGUGCUCCGUUGAAUGGAGUUUAUCAUG [G58U C123U]
The “polymerase ribozyme fitness (log ratio)” value of the first is lower: no more than -4.2 for the first, 0.837 for the second.

Compared with GGAUCUUCUCGAUCUAACAAAAAAGACAAAUCUGCCACAAAGCUUGAGAGCAUCUUCUAAUGCAGAGGCGGCAGCCUUCGGUGGCGCGAUAGCGCCAACGUUCUCAACUAUGACACGCAAAACGCGUGCUCCGUUGAAUGGAGUUUAUCAUG [G58U G59A], GGAUCUUCUCGAUCUAACAAAAAAGACAAAUCUGCCACAAAGCUUGAGAGCAUCUUCGAAUGCAGAGGCGGCAGCAUUCGGUGGAGCGAUAGCGCCAACGUUCUCAACUAUGACACACAAACCGCGUGCUCCGUUGAAUGGAGUUUAUCAUG [G59A C76A C85A G117A A122C] is lower in “polymerase ribozyme fitness (log ratio)” value: 0.429 for the first, -2.85 for the second.

Going from GGAUCUUCUCGAUCUAACAAAAAAGACAAAUCUGCCACAAAGCUUGAGAGCAUCUUCUGAUGCAGAGGCGGCAGCCUUCGGUGGCGCGAUAGCGCCAACGUUCUCAACUAUGACACGCAAAACGCGUGCUCCGUCGAAUGGAGUUUAUCAUG [G58U U135C] to GGAUCUUCUCGAUCUAACAAAAAAGACAAAUCUGCCACAAAGCUUGAGAGCAUCUUCUGAUGCAGAGGCGGCAGCCUUCGGAGGCGCGAUAGCGCCAACGUUCUCAACUAUGACACGCAAAACGCGUGCUCCGUUGAAUGGGGUUUAUCAUG [G58U U82A A142G], the “polymerase ribozyme fitness (log ratio)” value rises from -1.62 to -0.998.

For GGAUCUUCUCGAUCUAACAAAAAAGACAAAUCUGCCACAAAGCUUGAGAGCAUCUUCUGAUGCAGAGGCGGCAGCCUUCGGUGGCGCGAUAGCGCCAACGUUCUCAACUAUGACACGCAAAACGCGUUCUCCGUUGAAUGGAGUUUAUCAUG [G58U G128U], the “polymerase ribozyme fitness (log ratio)” value was -3.02.
